Experimental data published in the supplement of paper PMC10126150.
± gives the standard deviation of the averaged measurements.

Test system: ATP
Assay: switch fluorescence ratio, 500 uM ATP over buffer (Cy3 cluster intensity, sum of 5 cycles each) (fold (ratio)); higher = stronger signal-on switching upon ATP binding; sequences stand for … in TCGTCGGCAGCGTCAGATGTGTATAAGAGACAGTTTTTTTTTTTTTTTTTTTTTTTTT…TC
Settings: aptamer strand: ATP DNA aptamer (quencher-CACCTGGGGGAGTATTGCGGAGGAAGG + anchor), 100 nM annealed; ATP concentration: 500 uM
Procedure, shortened: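 Values give the fluorescence ratio for each switch-domain sequence, averaged from per-cluster ratios of summed target-cycle to summed buffer-cycle Cy3 intensity. The Cy3-labelled switching-strand clusters sat on a modified Illumina MiSeq flow-cell, were annealed to 100 nM quencher-labelled ATP aptamer, and were imaged in selection buffer, then after 15 min with 500 uM ATP at 22 °C. Five cycles ran with NaOH stripping and re-annealing between them, and clusters outside 100-1000 RFU were excluded.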
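Note: ATP exposure 15 min at 22 °C before imaging.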

## CAAGGAACGT
  switch fluorescence ratio: 1.01 ± 0.029

## TTGGTAGTCA
  switch fluorescence ratio: 0.992 ± 0.037

## TGGTGAGGGC
  switch fluorescence ratio: 0.9816 ± 0.0077

## ATACGGGTGC
  switch fluorescence ratio: 1.26 ± 0.043

## TGACCAATGT
  switch fluorescence ratio: 1 ± 0.028

## CGTTGGGGGG
  switch fluorescence ratio: 0.999 ± 0.03

## GCTGTCGGTG
  switch fluorescence ratio: 0.972 ± 0.0079

## GAAGGACAGC
  switch fluorescence ratio: 1.05 ± 0.034

## AAAGTGGTGG
  switch fluorescence ratio: 1.02 ± 0.039

## GTTACTGAGG
  switch fluorescence ratio: 1.031 ± 0.0017

## GGGTTCATTT
  switch fluorescence ratio: 1.019 ± 0.0015

## AAGGGGGTCT
  switch fluorescence ratio: 1.02 ± 0.083

## TGACGCAGGT
  switch fluorescence ratio: 1.38 ± 0.04

## TTTATTAATT
  switch fluorescence ratio: 1 ± 0.029

## TTTTCACGCA
  switch fluorescence ratio: 1.57 ± 0.53

## AGGGGGGTAC
  switch fluorescence ratio: 0.991 ± 0.041

## ACGGTTGCGC
  switch fluorescence ratio: 1.01 ± 0.034

## TCGTAGGAGG
  switch fluorescence ratio: 1.07 ± 0.024

## GTTTTTTGAG
  switch fluorescence ratio: 1 ± 0.046

## AGGTGTTCTA
  switch fluorescence ratio: 1.02 ± 0.021

## TAATGAGAAC
  switch fluorescence ratio: 0.974 ± 0.014

## GATGAGTCTG
  switch fluorescence ratio: 0.98 ± 0.044

## GTGTAGGGTA
  switch fluorescence ratio: 1.01 ± 0.02

## AGATAAACTC
  switch fluorescence ratio: 1.03 ± 0.051

## TGTGTAAGAG
  switch fluorescence ratio: 0.9867 ± 0.0063

## TCGGCTTAGG
  switch fluorescence ratio: 0.987 ± 0.048

## TTGTGATGTC
  switch fluorescence ratio: 1.031 ± 0.0048

## ATCTGCAACA
  switch fluorescence ratio: 1.62 ± 0.042

## ACGGAGACCG
  switch fluorescence ratio: 1.01 ± 0.038

## TTGAGATTTT
  switch fluorescence ratio: 0.996 ± 0.023

## CCGTTACCTG
  switch fluorescence ratio: 0.974 ± 0.015

## AGTACGAGGA
  switch fluorescence ratio: 1.04 ± 0.035

## CAGTTCACCT
  switch fluorescence ratio: 1.082 ± 0.0063

## TTGAGGAGGG
  switch fluorescence ratio: 0.962 ± 0.11

## ACATTCTGGA
  switch fluorescence ratio: 0.988 ± 0.031

## TAGAGACGGA
  switch fluorescence ratio: 1.0278 ± 0.001

## ATCATAATCT
  switch fluorescence ratio: 1.013 ± 0.0034

## TTCAGAAATT
  switch fluorescence ratio: 1.01 ± 0.011

## ATACCGAGTA
  switch fluorescence ratio: 1.01 ± 0.049

## AAATTTGCGT
  switch fluorescence ratio: 0.987 ± 0.02

## CTGGGGTTGG
  switch fluorescence ratio: 0.968 ± 0.012

## TTTGAATCG
  switch fluorescence ratio: 1.01 ± 0.021

## ATTGGGGGGC
  switch fluorescence ratio: 1.01 ± 0.036

## TCTGATGTTT
  switch fluorescence ratio: 1.01 ± 0.021

## ATGTTCTTCT
  switch fluorescence ratio: 0.982 ± 0.018

## ACATACATTG
  switch fluorescence ratio: 1.27 ± 0.061

## ATTAAACGAG
  switch fluorescence ratio: 1.01 ± 0.031

## GGTTTAATGG
  switch fluorescence ratio: 1.01 ± 0.018

## GAACAGGGGA
  switch fluorescence ratio: 1.53 ± 0.68

## TGGGGGGAAT
  switch fluorescence ratio: 1.03 ± 0.1

## AAGATGCTTG
  switch fluorescence ratio: 0.998 ± 0.038

## TCTGGGAATA
  switch fluorescence ratio: 1.04 ± 0.023

## ACAAGTTTAA
  switch fluorescence ratio: 0.997 ± 0.025

## TCGTTGGCGG
  switch fluorescence ratio: 0.951 ± 0.019

## CGGAAATTGG
  switch fluorescence ratio: 0.982 ± 0.012

## GGGGTTAAAA
  switch fluorescence ratio: 0.973 ± 0.024

## AGCGAGAGAC
  switch fluorescence ratio: 1.102 ± 0.0025

## CTGATCATTC
  switch fluorescence ratio: 1.04 ± 0.045

## GTGTAAGGGT
  switch fluorescence ratio: 0.981 ± 0.018

## AGAGTATTGC
  switch fluorescence ratio: 1.04 ± 0.16

## AGGGTTCTTT
  switch fluorescence ratio: 1 ± 0.029

## CGGGGGTAGA
  switch fluorescence ratio: 0.966 ± 0.042

## GGTGGGGAAA
  switch fluorescence ratio: 1.0255 ± 0.00086

## GATATAGTAT
  switch fluorescence ratio: 0.993 ± 0.039

## AAGTTAGGTC
  switch fluorescence ratio: 0.969 ± 0.047

## ACGGGTATTG
  switch fluorescence ratio: 1.02 ± 0.034

## TAAGTTACAA
  switch fluorescence ratio: 1.09 ± 0.019

## GTGAGCCGGT
  switch fluorescence ratio: 0.983 ± 0.013

## AAATAGGGGT
  switch fluorescence ratio: 1 ± 0.039

## TATGGAAAGG
  switch fluorescence ratio: 0.994 ± 0.016

## AATGGCGTAT
  switch fluorescence ratio: 1.02 ± 0.029

## TTTAATTTGG
  switch fluorescence ratio: 0.9816 ± 0.0073

## TTTTGACAGG
  switch fluorescence ratio: 1.03 ± 0.011

## TAATGAGTTT
  switch fluorescence ratio: 1.006 ± 0.0016

## CGGATGAGGT
  switch fluorescence ratio: 0.987 ± 0.052

## CGGTACGTTT
  switch fluorescence ratio: 1.007 ± 0.0015

## GGGGCGGACT
  switch fluorescence ratio: 0.952 ± 0.04

## TCACCGCACG
  switch fluorescence ratio: 2.2 ± 0.36

## CCAAGTGCTG
  switch fluorescence ratio: 0.994 ± 0.018

## ATTCGTTTTG
  switch fluorescence ratio: 1.03 ± 0.017

## CAGAGTAGGG
  switch fluorescence ratio: 0.969 ± 0.049

## GCTATTGGGT
  switch fluorescence ratio: 0.95 ± 0.022

## TTTTTTCTAA
  switch fluorescence ratio: 0.973 ± 0.015

## TAGGAAAGTG
  switch fluorescence ratio: 1.03 ± 0.054

## AAGAGGGATG
  switch fluorescence ratio: 0.988 ± 0.043

## GCCAATGGGC
  switch fluorescence ratio: 1 ± 0.051

## GGGGTGGTTA
  switch fluorescence ratio: 0.9948 ± 0.005

## ATGGGTTTTC
  switch fluorescence ratio: 0.981 ± 0.03

## GTCGCGGTTG
  switch fluorescence ratio: 1.03 ± 0.0015

## GGTTCACGGG
  switch fluorescence ratio: 0.983 ± 0.015

## AGCTGATGG
  switch fluorescence ratio: 1.0343 ± 0.00071

## TGCGGGAGGG
  switch fluorescence ratio: 1.26 ± 0.35

## TGCAGCTGGT
  switch fluorescence ratio: 0.98 ± 0.021

## ATGAAATTGT
  switch fluorescence ratio: 1.02 ± 0.033

## GGTCAGGTGA
  switch fluorescence ratio: 0.972 ± 0.073

## TATGTCTCCG
  switch fluorescence ratio: 1.03 ± 0.017

## TACAAAAAGG
  switch fluorescence ratio: 0.981 ± 0.023

## GACAGGGATT
  switch fluorescence ratio: 1.1 ± 0.15

## TTGTTTTTTG
  switch fluorescence ratio: 1.01 ± 0.034

## GTGACTTTCT
  switch fluorescence ratio: 0.99 ± 0.017

## CGTGGTTTTT
  switch fluorescence ratio: 1.01 ± 0.023

## TTCGGTTTGG
  switch fluorescence ratio: 0.9952 ± 0.0061

## GCGAATGCTG
  switch fluorescence ratio: 1.006 ± 0.0089

## GCGAGGTCGA
  switch fluorescence ratio: 0.991 ± 0.038

## GCTTAGGGTG
  switch fluorescence ratio: 1.01 ± 0.015

## ACTTTGTACG
  switch fluorescence ratio: 1.06 ± 0.011

## CAAAATTGGG
  switch fluorescence ratio: 0.956 ± 0.013

## TACATAAAAC
  switch fluorescence ratio: 1.011 ± 0.0025

## GAAGGAGGGT
  switch fluorescence ratio: 0.9731 ± 0.0064

## GAGTGCCGGG
  switch fluorescence ratio: 1.03 ± 0.016

## ATCGTAAAAG
  switch fluorescence ratio: 0.9926 ± 0.0011

## TTGGTTATGC
  switch fluorescence ratio: 0.998 ± 0.045

## TGTACGTTGG
  switch fluorescence ratio: 1.26 ± 0.37

## TATAGAGGGG
  switch fluorescence ratio: 1.07 ± 0.15

## AGGTTCAGGC
  switch fluorescence ratio: 0.9821 ± 0.0086

## GATTATAGGT
  switch fluorescence ratio: 1.01 ± 0.015

## GGGCTAAAGG
  switch fluorescence ratio: 1.04 ± 0.03

## GCGGGGACGT
  switch fluorescence ratio: 1.02 ± 0.027

## GAAAAAGCCC
  switch fluorescence ratio: 1.04 ± 0.031

## CTCGTTGCGG
  switch fluorescence ratio: 1.06 ± 0.07

## CGGGGGCCGT
  switch fluorescence ratio: 0.936 ± 0.014

## AGGGCAAAAG
  switch fluorescence ratio: 1.03 ± 0.006

## GATTGATTTT
  switch fluorescence ratio: 1.02 ± 0.044

## AGGGGGAACT
  switch fluorescence ratio: 1.03 ± 0.033

## TTTCCGGGTG
  switch fluorescence ratio: 2.5 ± 1.1

## TGGGGACTGG
  switch fluorescence ratio: 1.04 ± 0.088

## ACACAGGCTA
  switch fluorescence ratio: 1.027 ± 0.005

## TTGAACCCGA
  switch fluorescence ratio: 1.01 ± 0.023

## CTGGTTGGAG
  switch fluorescence ratio: 0.995 ± 0.022

## TTACCATTGG
  switch fluorescence ratio: 1.04 ± 0.082

## TGTTTAATTT
  switch fluorescence ratio: 1.03 ± 0.072

## CGTGACAGAG
  switch fluorescence ratio: 0.992 ± 0.02

## CATGTTAGTC
  switch fluorescence ratio: 1.01 ± 0.012

## TGATTGAATG
  switch fluorescence ratio: 0.9785 ± 0.001

## AATAACACGT
  switch fluorescence ratio: 1 ± 0.026

## CGGGGGAGTG
  switch fluorescence ratio: 0.975 ± 0.025

## TCCATGTGCC
  switch fluorescence ratio: 1.14 ± 0.14

## AGGAAAACAG
  switch fluorescence ratio: 1.026 ± 0.0032

## AGAAGTTGGT
  switch fluorescence ratio: 1 ± 0.023

## ATTCCGTATA
  switch fluorescence ratio: 1.25 ± 0.022

## GTGAGGTGTG
  switch fluorescence ratio: 1.001 ± 0.009

## TTTTCGGATG
  switch fluorescence ratio: 1.02 ± 0.028

## TTATCTGTTA
  switch fluorescence ratio: 1.014 ± 0.0018

## TTGGGGCCGA
  switch fluorescence ratio: 0.956 ± 0.017

## TTTGCCTCGG
  switch fluorescence ratio: 0.984 ± 0.031

## ATTGATGACT
  switch fluorescence ratio: 1.04 ± 0.027

## CGAGCTTGAG
  switch fluorescence ratio: 0.99 ± 0.002

## AGAGGTAAGA
  switch fluorescence ratio: 0.9911 ± 0.0084

## GTGGGGTCTT
  switch fluorescence ratio: 1 ± 0.019

## CAGTTGTTTT
  switch fluorescence ratio: 1.02 ± 0.034

## ATCTAATGCC
  switch fluorescence ratio: 1.01 ± 0.042

## CGGGGAATAT
  switch fluorescence ratio: 0.993 ± 0.017

## AATAATATTT
  switch fluorescence ratio: 1.01 ± 0.021

## CCGGAAAGAG
  switch fluorescence ratio: 1.06 ± 0.02

## AACTGGAGGA
  switch fluorescence ratio: 0.9715 ± 0.002

## GGCCGGACAT
  switch fluorescence ratio: 0.9674 ± 0.0089

## TGAATAAAGT
  switch fluorescence ratio: 0.978 ± 0.021
